From article PMC3967975 (Molecular Biology of the Cell, 2014)
Where two headings read alike, the source gives them in different places.

B1: Ce-lamin tail domain (residues 388–566), His-tagged (domain or fragment, C. elegans, UniProt Q21443 388-566, looked up)
chain: NLTQEAPQNTSVHHVSFSSGGASAQRGVKRRRVVDVNGEDQDIDYLNRRSKLNKETVGPVGIDEVDEEGKWVRVANNSEEEQSIGGYKLVVKAGNKEASFQFSSRMKLAPHASATVWSADAGAVHHPPEVYVMKKQQWPIGDNPSARLEDSEGDTVSSITVEFSESSDPSDPADRCSIM
B2: MBP::BAF-1 (wild-type C. elegans barrier to autointegration factor 1 fused to maltose-binding protein) (natural protein, UniProt Q03565 1-89, looked up)
chain: MSTSVKHREFVGEPMGDKEVTCIAGIGPTYGTKLTDAGFDKAYVLFGQYLLLKKDEDLFIEWLKETAGVTANHAKTAFNCLNEWADQFM
B3: MBP::BAF-1 S4E (natural protein, C. elegans, UniProt Q03565 1-89, looked up)
chain: MSTEVKHREFVGEPMGDKEVTCIAGIGPTYGTKLTDAGFDKAYVLFGQYLLLKKDEDLFIEWLKETAGVTANHAKTAFNCLNEWADQFM
B4: MBP::BAF-1 F46E (natural protein, C. elegans, UniProt Q03565 1-89, looked up)
chain: MSTSVKHREFVGEPMGDKEVTCIAGIGPTYGTKLTDAGFDKAYVLEGQYLLLKKDEDLFIEWLKETAGVTANHAKTAFNCLNEWADQFM
B5: MBP::BAF-1 K6A (natural protein, C. elegans, UniProt Q03565 1-89, looked up)
chain: MSTSVAHREFVGEPMGDKEVTCIAGIGPTYGTKLTDAGFDKAYVLFGQYLLLKKDEDLFIEWLKETAGVTANHAKTAFNCLNEWADQFM
B6: MBP::BAF-1 S4A (natural protein, C. elegans, UniProt Q03565 1-89, looked up)
chain: MSTAVKHREFVGEPMGDKEVTCIAGIGPTYGTKLTDAGFDKAYVLFGQYLLLKKDEDLFIEWLKETAGVTANHAKTAFNCLNEWADQFM
B7: His::emerin 1–125 (Ce-emerin residues 1–125, nucleoplasmic domain only) (domain or fragment, C. elegans, UniProt O01971 1-125, looked up)
chain: MDVSQLTDAELRDSLKSHGVSVGPIVATTRKLYEKKLIKLSDGSINNQSNLNDSQFNEDSLIISSSPKKSPPQRVFQNVSAATAAATTSPESDSDDCEESMRYLTEEEMAADRASARQAQSNKGG
B8: His::lamin R55H (full-length Ce-lamin bearing the R55H mutation) (natural protein, C. elegans, UniProt Q21443 1-566, looked up)
chain: MSSRKGTRSSRIVTLERSANSSLSNNGGGDDSFGSTLLETSRLQEKDHLTSLNSHLATYIDKVRQLEQENNRLQVQIRDIEVVEKKEKSNLADRFEAEKARLRRALDSAQDELAKYRIEYDAAKVEVKKLKPQVEKLERELAGAEEQALHAQSIADQSQAKQKTLQARNDKLVVENDDLKKQNITLRDTVEGLKKAVEDETLLRTAANNKIKALEEDLAFALQQHKGELEEVRHKRQVDMTTYAKQINDEYQSKLQDQIEEMRAQFKNNLHQNKTAFEDAYKNKLNAARERQEEAVSEAIHLRARVRDLETSSSGNASLIERLRSELDTLKRSFQEKLDDKDARIAELNQEIERMMSEFHDLLDVKIQLDAELKTYQALLEGEEERLNLTQEAPQNTSVHHVSFSSGGASAQRGVKRRRVVDVNGEDQDIDYLNRRSKLNKETVGPVGIDEVDEEGKWVRVANNSEEEQSIGGYKLVVKAGNKEASFQFSSRMKLAPHASATVWSADAGAVHHPPEVYVMKKQQWPIGDNPSARLEDSEGDTVSSITVEFSESSDPSDPADRCSIM

Tests used:
Experiment in all cases: SPR
[1] = target: B8
[2] = target: B7
[3] = target: B8; remark: listed apart in the source
[4] = target: the molecule itself
[5] = target: the molecule itself; remark: listed apart in the source

Binder	Kd [1]	Kd [2]	Kd [3]	Kd [4]	Kd [5]
B1	0.56 nM				
B2	84 nM	57 nM			
B3	32100 nM	~57 nM			
B4	623 nM	5.6 nM			
B5	198 nM	31 nM			
B6	281 nM	20 nM			
B7			4 to 5 nM	14 nM	
B8					3.7 nM
